Source: patent US11433139B2, “Peptide vaccines against interleukin-31” (Zoetis Services LLC, priority 2018, dated 2022)

Tests used:
[1] = biological target: feline IL-31; experiment: Affinity of anti-IL-31 antibodies by surface plasmon resonance (Biacore), feline IL-31 surface; type: binding; details: IL-31 conjugated to the surface (FIG. 2)
Method in brief: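 IL-31 amine-coupled (NHS/EDC) at 5 μg/mL directly onto the SPR chip, quenched with ethanolamine; candidate mAbs flowed over as analyte. KD from 1:1 model fits; values below 1×10^−11 M are under the instrument's lower quantitation limit.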
Target sequence in this assay (as listed by the source): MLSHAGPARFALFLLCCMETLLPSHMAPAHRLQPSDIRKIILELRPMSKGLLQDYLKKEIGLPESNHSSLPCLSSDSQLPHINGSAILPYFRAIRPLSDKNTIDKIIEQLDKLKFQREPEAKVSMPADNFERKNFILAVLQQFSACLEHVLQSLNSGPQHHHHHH

[2] = test system: feline IL-31; experiment: Inhibition of feline IL-31 induced pSTAT3 signaling in feline FCWF4 macrophage-like cells; type: cell-based; details: 0.2 μg/mL feline IL-31, pSTAT3, FCWF4 cells (FIG. 3)
Method in brief: (§1)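 DH-82 cells primed with canine IFN-γ 10 ng/mL for 24 h, FCWF4 with feline IFN-γ 125 ng/mL for 96 h, then serum-starved 2 h. mAb pre-incubated 1 h with 1 μg/mL canine or 0.2 μg/mL feline IL-31, cells stimulated 5 min; pSTAT3 by AlphaLISA SureFire, IC50 as half-maximal signalling reduction.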

[3] = test system: feline IL-31; experiment: Inhibition of feline IL-31 induced pSTAT3 signaling in canine DH-82 cells; type: cell-based; details: feline IL-31, pSTAT3, canine DH82 cells (FIG. 3)
Method in brief: as §1
Target sequence in this assay (as listed by the source): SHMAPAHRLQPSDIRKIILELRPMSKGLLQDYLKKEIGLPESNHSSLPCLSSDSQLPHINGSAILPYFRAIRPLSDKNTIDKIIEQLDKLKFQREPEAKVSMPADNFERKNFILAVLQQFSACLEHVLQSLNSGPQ

[4] = biological target: T1, canine IL-31 (Canis lupus familiaris, UniProt A0A8I3S3D1); experiment: Inhibition of canine IL-31 induced pSTAT3 signaling in canine DH-82 and feline FCWF4 cells; type: cell-based; details: canine IL-31; canine and feline cell types, cell type of the values not specified
T1 construct: made in house; host or cells: CHO cells (CHROMOS ACE system)
T1 sequence (A0A8I3S3D1 24-159): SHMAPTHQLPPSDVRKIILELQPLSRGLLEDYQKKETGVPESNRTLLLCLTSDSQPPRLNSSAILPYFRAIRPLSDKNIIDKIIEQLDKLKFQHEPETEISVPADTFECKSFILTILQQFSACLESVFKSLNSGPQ
Description: To identify candidates with inhibitory activity, antibodies were assessed for their ability to affect IL-31-mediated STAT3 phosphorylation in either a canine or feline cell-based assay. STAT3 phosphorylation was determined in canine DH-82 (ATCC® CRL-10389™) or feline FCWF4 macrophage-like cells (ATCC CRL-2787). DH82 and FCWF4 cells were primed with canine interferon gamma (R&D Systems, Minneapolis, Minn.) at 10 ng/mL for 24 hours or feline interferon gamma (R&D Systems, Minneapolis, Minn.) at 125 ng/mL for 96 hours, respectively, to increase receptor expression. Both cell types were serum starved for 2 hours prior to IL-31 and mAb treatment. Using two independent methods, all candidate mAbs were evaluated for their ability to inhibit either 1 μg/mL canine or 0.2 μg/mL feline IL-31 induced STAT3 phosphorylation. […] To ensure complex formation, a one hour co-incubation of mAb and IL-31 cytokine prior to cell stimulation was completed. IL-31 cell stimulation was carried out for five minutes. STAT3 phosphorylation was measured using AlphaLISA SureFire ULTRA™ technology (Perkin Elmer, Waltham, Mass.). In the case where antibody concentration and purity are unknown, hybridoma supernatants were qualitatively measured for their ability to inhibit STAT3 phosphorylation following a 1 hour co-incubation with […] IL-31. The potency of individual monoclonal antibodies defined by their ability to inhibit IL-31 mediated STAT3 phosphorylation in these assays was considered the key selection criteria for further advancement of select antibodies. The term potency refers to the IC50 value calculated from these assays and is the concentration of the antibody where signaling induced by IL-31 is reduced to one half its maximal value.

[5] = test system: feline IL-31; experiment: Cat pruritus challenge model, subcutaneous antibody then IL-31 challenge; type: in vivo; details: cats, 4 mg/kg subcutaneously day 0; 0.5 μg/kg i.v. IL-31 challenge days 7, 21, 28
Description: The efficacy of the fully felinized anti feline IL-31 mAb ZTS-361 was assessed for its ability to neutralize pruritic behavior in an IL-31 induced in vivo cat model. […] As shown in this graph, the variance of pruritic behavior scored for both T01 and T02 groups prior to IL-31 challenge varied little with the number of pruritic events observed between 0 and 10 within the 30 minute observation period. This study differed from the preliminary feline challenge model described above in section 1.13 in that on day zero cats were dosed with 4 mg/kg ZTS-361 subcutaneously without combination with feline IL-31 to generate a pre-bound complex. This represents a more rigorous assessment of efficacy as antibody ZTS-361 will be in circulation for seven days prior to the first IL-31 challenge requiring the antibody to have sufficient exposure to bind and neutralize circulating IL-31.
For this study, pruritic behavior was assessed on days 7, 21, and 28 for 1 hour following a 0.5 μg/kg intravenous challenge of the IL-31 protein.
Target sequence in this assay (as listed by the source): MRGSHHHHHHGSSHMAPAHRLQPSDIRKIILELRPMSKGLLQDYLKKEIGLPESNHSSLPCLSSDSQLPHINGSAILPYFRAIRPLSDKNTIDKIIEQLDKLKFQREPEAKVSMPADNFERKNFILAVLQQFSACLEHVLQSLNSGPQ

B1: ZTS-361: felinized anti IL-31 15H05 mAb, FEL_15H05_VH1 with Feline_HC_AlleleA_1, FEL-15H05-VL1_FW2 light chain (antibody, V domains shown)
VH: QVLLVQSGAEVRTPGASVKIFCKASGYSFTSYTIHWLRQAPAQGLEWMGNINPTSGYTENNQRFKDRLTLTADTSTNTAYMELSSLRSADTAMYYCARWGFKYDGEWSFDVWGAGTTVTVSS
VL: EIQMTQSPSSLSASPGDRVTITCRASQGISIWLSWYQQKPGNIPKVLINKASNLHIGVPSRFSGSGSGTDFTLTISSLEPEDAATYYCLQSQTYPLTFGGGTKLEIK
modifications: feline constant regions joined; Felinized variable heavy mAb sequence, from Mus musculus and Felis catus; Felinized variable light mAb sequence, from Mus musculus and Felis catus
[1]
  affinity (KD) to feline IL-31: highly consistent with that of the mouse and chimeric form
[2]
  potency (IC50) against feline IL-31 in feline FCWF4 cells: highly consistent with values derived from the chimeric and mouse form
[3]
  potency (IC50) against feline IL-31 in canine DH82 cells: highly consistent with values derived from the chimeric and mouse form
[4]
  IC50 against canine IL-31: proportionally higher
[5]
  reduction in pruritus compared to vehicle placebo control: significant reduction in pruritus
